The results in this text go back to article PMC9979629 (Antiviral Research, 2023).

The assay concerns the target His-tagged wild-type SARS-CoV-2 RBD (SARS-CoV-2, UniProt P0DTC2). In words: ELISA.

B1: K102.1 (antibody, V domains shown)
VH: EVQLLESGGGLVQPGGSLRLSCAASGFTFSDYAMSWVRQAPGKGLEWVSWIYSGSGNKYYADSVKGRFTISRDNSKNTLYLQMNSLRAEDTAVYYCARFPIARTSNSQSSYDGMDVWGQGTLVTVSS
VL: QSVLTQPPSASGTPGQRVTISCSGSSSNIGSNAVSWYQQLPGTAPKLLIYADNKRPSGVPDRFSGSKSGTSASLAISGLRSEDEADYYCGAWDSSLNAYVFGGGTKLTVL
For B1, the binding result is listed as “binds”.

B2: K102.2 (antibody, V domains shown)
VH: EVQVLESGGGLVQPGGSLRLSCAASGFTFSSYDMSWVRQAPGKGLEWVSGISYSGGSTYYADSVKGRFTISRDNSKNTLYLQMNSLRAEDTAVYYCARDVNFVPLVTFDYWGQGTLVTVSS
VL: QSVLTQPPSASGTPGQRVTLSCTGSSSNIGSNSVTWYQQLPGTAPKLLIYDDNQRPSGVPDRFSGSKSGTSASLAISGLRSEDEADYYCGTWDYSLSAYVFGGGTKLTVL
Regarding B2, the binding result is reported as “binds”.
